Paper PMC4414150, “Zfra activates memory Hyal-2+ CD3− CD19− spleen cells to block cancer growth, stemness, and metastasis in vivo” (Oncotarget, 2015)

Target: T1, Zfra16–31
T1 construct: Zfra, residues 16-31; also called Zfra peptide of amino acid #16–31; source: synthetic peptide (manual synthesis, Genemed Synthesis)
T1 peptide: FRAHTQKNAATPFLAN
Test: SDS-PAGE of the incubated peptide (ladder of polymers); peptides alone (2 mM in 100 μl PBS) or mixed together, room temperature, 24 hr (legend; the text says sterile MilliQ water, 48 hr); non-reducing and reducing gels; less polymerization in MilliQ water
Details: both partners purified

binding result: binds
B1: Zfra1–15 (peptide)
peptide: MSSRRSSSCKYCEQD
notes: Zfra, residues 1-15; also called Zfra peptide of amino acid #1–15; source: synthetic peptide (manual synthesis, Genemed Synthesis)
